The assay addresses Slx4-S486A^3Flag (budding yeast), Q12098. Briefly: affinity purification with mass spectrometry. The conditions noted are these: remark: other sources report otherwise.

Slx4-S486A^3Flag (budding yeast), Q12098, sequence (Q12098 whole entry S486A): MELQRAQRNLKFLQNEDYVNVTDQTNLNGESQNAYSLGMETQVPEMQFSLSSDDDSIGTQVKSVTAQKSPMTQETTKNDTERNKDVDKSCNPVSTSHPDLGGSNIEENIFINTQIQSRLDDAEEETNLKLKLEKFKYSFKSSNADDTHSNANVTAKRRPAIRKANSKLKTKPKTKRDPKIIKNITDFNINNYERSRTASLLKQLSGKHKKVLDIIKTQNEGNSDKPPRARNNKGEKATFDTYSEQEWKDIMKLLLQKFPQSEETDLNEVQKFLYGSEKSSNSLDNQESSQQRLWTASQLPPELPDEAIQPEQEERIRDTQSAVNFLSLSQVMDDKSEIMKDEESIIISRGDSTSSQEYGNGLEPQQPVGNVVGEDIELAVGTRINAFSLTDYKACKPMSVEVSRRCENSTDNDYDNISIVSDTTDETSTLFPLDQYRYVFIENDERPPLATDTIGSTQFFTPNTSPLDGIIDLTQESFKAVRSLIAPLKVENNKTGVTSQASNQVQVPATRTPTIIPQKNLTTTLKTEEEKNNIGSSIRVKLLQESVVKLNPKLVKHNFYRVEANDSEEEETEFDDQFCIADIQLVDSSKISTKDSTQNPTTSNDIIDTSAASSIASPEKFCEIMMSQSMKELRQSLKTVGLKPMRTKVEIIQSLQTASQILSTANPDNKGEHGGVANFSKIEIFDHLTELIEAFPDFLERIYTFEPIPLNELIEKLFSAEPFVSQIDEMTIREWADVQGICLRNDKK

B1: Dpb11, endogenous, P47027 1-764 (natural protein)
chain: MKPFQGITFCPTAINNEILAKKISKKIIKLGGIFSKDLTRQVNVLVVGSTTNTNKFKFAVKHRFDIIFIDIQAIDDIYQLWLSGENILPDSNTATMTGSTYEMLKILYRRFSFKYLHNFNIFIGRITDTNITSIDSLVRSIKKLGCSSYNYQNFVIKDTSSHNDDDDQGQNGQISIFVTDTLLGARVNAAIEQNIPIVHFKWILDCQKRSALLPYDPYYLLPNIKDLPYDSIGSNSCDCWDKINTTFPTNIDAQSSLQRQQSSSTLTPSLPKTSSLLNKFKPKGEKIWDKAMSLQQHSKTNFSVLGQSPLSINNKQEDLSDNSTLIFKNCAFIIHHIFPGNHRSILTKIVVQNGGKIETSYLSGIYDHSYYIIPSNKALDSFNDLPEIIDDNDGIVTEFFIERCLYYQKLLHPIDLWSKPFLSTIEFQVSSSSKLLHHEFSSSPFLNVTITGFSGVELLHLTKVLNLLKPMGINYVEYLNKSTDILLINLAALPSIPKTHPLWSNEFSDLFTQFCINNNNDDPGDNNRKDFQNNSILRNSMKRKIEYIKKFHSIPVVTPAFIFKLLSAASGENNEIFLNNIKWCIICPRGHKDDFKCKIKKPYYTSISSEKKYQNNDPKIDKTILLKRNNSSLSEHSMKDTKNELLQKIRETDSGRKKRSVSSSIMDVSSERQMPDTKRIKLESLPKNFVPKQIKRTTSWGTIMSENVPTEQPTAISNPEEIPRTEEVSHTQVTYGSIQDKKRTASLEKPMRRQTRNQTKELDS
For B1, the fold reduction of binding against wild-type Slx4^3Flag came out at 8 fold.

The values above are taken from paper PMC4102767.
